Measured values taken from patent US20230124669A1.

Columns and labels:
[1] = target: neonatal Fc receptor FcRn; assay: FcRn binding of bispecific antibody; method not stated
[2] = target: neonatal Fc receptor FcRn; assay: FcRn binding of bispecific antibody at acidic pH; method not stated

pH dependent FcRn binding/% [1]: 0%
FcRn binding at acidic pH/nM [2]: 53.7 nM
B1: TY21489 (bispecific antibody, part only; not given: rest of both heavy chains, lights, not shown: a dimerising Fc or GST)
heavy, part 1: GQPREPQVYTLPPSRKKLTKNQVKLTCLVKGFYPSDIAVEWESNGQPENNYKTTPPVLDCDGSFFLYSKLTVDKSRWQQGNVFSCSVMHEALHNHYTQKSLSLSPGK
heavy, part 2: GQPREPQVYTDPPSRDELTKNQVSLTCLVDGFYPSDIAVEWESNGQPENCYKTTPPVLDSDGSFFLYSKLTVDKSRWQQGNVFSCSVMHEALHNHYTQDSLSLSPGK
